Where two headings read alike, the source gives them in different places. Positions of bridges follow the written chain, without caps; N, C: chain ends. No end group written: not given here.
Columns and labels:
[1] = Thiol-disulfide exchange equilibrium (GSH/GSSG): intramolecular disulfide formation; ddG=-RT ln(Ceff,X/Ceff,Leu), gly-asn turn peptides 1; details: the molecule shown is the open-chain precursor; 32-membered ring; water, ca. 0.15 M Tris, 1 mM EDTA, pH 8.10, 25 mM total glutathione; 0.375 mM; 20.0 °C; 1.5 h
[2] = Thiol-disulfide exchange equilibrium (GSH/GSSG redox buffer): intramolecular disulfide formation between two Cys of reduced peptide; Ceff=([pep_ox]/[pep_red])x([GSH]^2/[GSSG]), HPLC after acid quench; details: the molecule shown is the open-chain precursor; 32-membered ring; water, ca. 0.15 M Tris, 1 mM EDTA, pH 8.10, 25 mM total glutathione; 0.375 mM; 20.0 °C; 1.5 h
[3] = cited from earlier work
[4] = Cysteine effective concentration (Ceff) measurement, thiol-disulfide equilibrium relative to glutathione; assay type: physicochemical; details: Table 2, bhpW and CD4 C′-C″ loop peptides, pH 8.10, 20° C.
Experimental: Cysteine Effective Concentration Measurements. Glutathione stock solutions were prepared by mixing 3 volumes of 0.2 M reduced glutathione (GSH) with 1 volume of 0.1 M oxidized glutatione (GSSG). Aliquots were stored at −80° C. and were stable for several months; use of a single batch eliminated any error in ΔΔG values that might arise from variability of total glutathione concentration. Thiol-disulfide equilibria were established by mixing 50 μL peptide stock (approximately 3 mM in water) with 50 μL glutathione stock, deoxygenating the acidic solution with vacuum/argon cycles from a Firestone valve, then adding 300 μL of deoxygenated buffer by syringe (0.2 M tris, pH 8.0; 1 mM EDTA; 67 mM tris base to titrate glutathione), followed by further deoxygenation of the mixture. The final pH of all reaction mixtures was 8.10±0.05. Solutions were stirred under argon and maintained at 20° C. in a water bath. After 1.5 h, successive aliquots (100 μL) were removed with a gastight syringe, immediately quenched by discharge into 400 μL of 3.1 mM HCl, and analyzed by HPLC with a minimum of delay. Ceff values were calculated from the molar ratios of the reduced and oxidized forms of peptide and glutathione (peak area ratios corrected for absorbance differences measured by HPLC), assuming 0.025 M total glutathione monomer (i.e., neglecting the minor amount (<1%) of glutathione present in mixed disulfides with peptide): Ceff=([peptideox]/[peptidered])×([GSH]^2/[GSSG]) [GSH]+2[GSSG]=0.025 M [GSSG]=0.025 M/{2+3.26 (GSH peak area/GSSG peak area)} [peptideox]/[peptidered]=equilibrium peak area ratio/absorbance ratio
Two or three samples from each reaction mixture were analyzed; there were no shifts in populations with time, and calculated Ceff values typically varied by less than 5% (equivalent to 30 cal/mol uncertainty in ΔΔG).

[5] = Circular dichroism spectra of peptides; assay type: physicochemical; details: 10° C.; 20 μM peptide in 20 mM potassium phosphate, pH 7.0
Experimental: Terminal serine and lysine residues were added to improve the solubility of some variants of the CD4 peptide, which are otherwise uncharged. A similar modification was made to bhpW as a control. Non-turn residues that differ between bhpW and the CD4 loop are underlined. Coelution of reduced and oxidized peptides prevented measurement of Ceff for the T2, N3 variant of the CD4 peptide. Circular dichroism spectra were acquired at 10° C. with an Aviv Instruments, Inc. Model 202 spectrophotometer; peptide concentrations were 20 μM in 20 mM potassium phosphate, pH 7.0.

CC(=O)N[C@@H](CS)C(=O)N[C@H](C(=O)N[C@@H](CC(=O)O)C(=O)N[C@@H](CCC(=O)O)C(=O)NCC(=O)N[C@@H](CC(N)=O)C(=O)N[C@@H](CCCCN)C(=O)N[C@@H](CC(C)C)C(=O)N[C@H](C(=O)N[C@@H](CS)C(N)=O)[C@@H](C)O)[C@@H](C)O [Ac-CTDEGNKLTC-NH2]
ring closure, dG (kcal/mol relative to X=Leu) [1]: 0.32

CC(=O)N[C@@H](CS)C(=O)N[C@H](C(=O)N[C@@H](Cc1ccccc1)C(=O)N[C@@H](CCC(=O)O)C(=O)NCC(=O)N[C@@H](CC(N)=O)C(=O)N[C@@H](CCCCN)C(=O)N[C@@H](CC(C)C)C(=O)N[C@H](C(=O)N[C@@H](CS)C(N)=O)[C@@H](C)O)[C@@H](C)O [Ac-CTFEGNKLTC-NH2]
ring closure, Ceff [2]: 88 mM

CC(=O)N[C@@H](CS)C(=O)N[C@H](C(=O)N[C@@H](CCCCN)C(=O)N[C@@H](CCC(=O)O)C(=O)NCC(=O)N[C@@H](CC(N)=O)C(=O)N[C@@H](CCCCN)C(=O)N[C@@H](CC(C)C)C(=O)N[C@H](C(=O)N[C@@H](CS)C(N)=O)[C@@H](C)O)[C@@H](C)O [Ac-CTKEGNKLTC-NH2]
ring closure, Ceff [2]: 52 mM

CC(=O)N[C@@H](CS)C(=O)N[C@H](C(=O)N[C@@H](CC(C)C)C(=O)N[C@@H](CCC(=O)O)C(=O)NCC(=O)N[C@@H](CC(N)=O)C(=O)N[C@@H](CCCCN)C(=O)N[C@@H](CC(C)C)C(=O)N[C@H](C(=O)N[C@@H](CS)C(N)=O)[C@@H](C)O)[C@@H](C)O [Ac-CTLEGNKLTC-NH2]
ring closure, dG (kcal/mol relative to X=Leu) [1]: 0
ring closure, Ceff [2]: 85 mM

CC(=O)N[C@@H](CS)C(=O)N[C@H](C(=O)N[C@@H](CC(N)=O)C(=O)N[C@@H](CCC(=O)O)C(=O)NCC(=O)N[C@@H](CC(N)=O)C(=O)N[C@@H](CCCCN)C(=O)N[C@@H](CC(C)C)C(=O)N[C@H](C(=O)N[C@@H](CS)C(N)=O)[C@@H](C)O)[C@@H](C)O [Ac-CTNEGNKLTC-NH2]
ring closure, Ceff [2]: 52 mM

CC(=O)N[C@@H](CS)C(=O)N[C@H](C(=O)N[C@H](C(=O)N[C@@H](CCC(=O)O)C(=O)NCC(=O)N[C@@H](CC(N)=O)C(=O)N[C@@H](CCCCN)C(=O)N[C@@H](CC(C)C)C(=O)N[C@H](C(=O)N[C@@H](CS)C(N)=O)[C@@H](C)O)[C@@H](C)O)[C@@H](C)O [Ac-CTTEGNKLTC-NH2]
ring closure, dG (kcal/mol relative to X=Leu) [1]: 0.3

CC(=O)N[C@@H](CS)C(=O)N[C@H](C(=O)N[C@H](C(=O)N[C@@H](CCC(=O)O)C(=O)NCC(=O)N[C@@H](CC(N)=O)C(=O)N[C@@H](CCCCN)C(=O)N[C@@H](CC(C)C)C(=O)N[C@H](C(=O)N[C@@H](CS)C(N)=O)[C@@H](C)O)C(C)C)[C@@H](C)O [Ac-CTVEGNKLTC-NH2]
ring closure, dG (kcal/mol relative to X=Leu) [1]: 0.09
ring closure, Ceff [2]: 73 mM

CC(=O)N[C@@H](CS)C(=O)N[C@H](C(=O)N[C@@H](Cc1c[nH]c2ccccc12)C(=O)N[C@@H](CCC(=O)O)C(=O)NCC(=O)N[C@@H](CC(N)=O)C(=O)N[C@@H](CCCCN)C(=O)N[C@@H](CC(C)C)C(=O)N[C@H](C(=O)N[C@@H](CS)C(N)=O)[C@@H](C)O)[C@@H](C)O [Ac-CTWEGNKLTC-NH2]
ring closure, dG (kcal/mol relative to X=Leu) [1]: -0.53
ring closure, Ceff [2]: 210 mM

CC(=O)N[C@@H](CS)C(=O)N[C@H](C(=O)N[C@@H](Cc1ccc(O)cc1)C(=O)N[C@@H](CCC(=O)O)C(=O)NCC(=O)N[C@@H](CC(N)=O)C(=O)N[C@@H](CCCCN)C(=O)N[C@@H](CC(C)C)C(=O)N[C@H](C(=O)N[C@@H](CS)C(N)=O)[C@@H](C)O)[C@@H](C)O [Ac-CTYEGNKLTC-NH2]
ring closure, dG (kcal/mol relative to X=Leu) [1]: -0.08
ring closure, Ceff [2]: 98 mM

CC(C)C[C@H](NC(=O)[C@H](Cc1ccccc1)NC(=O)[C@H](CO)NC(=O)CNC(=O)[C@H](CCC(N)=O)NC(=O)[C@H](CC(N)=O)NC(=O)CNC(=O)[C@H](CS)NC(=O)[C@@H](N)CO)C(=O)N[C@H](C(=O)N[C@@H](CS)C(=O)N[C@@H](CCCCN)C(N)=O)[C@@H](C)O [H-SCGNQGSFLTCK-NH2]
ring closure, Ceff [2]: 45 mM

CC(C)C[C@H](NC(=O)[C@H](Cc1ccccc1)NC(=O)[C@H](CO)NC(=O)CNC(=O)[C@H](CCC(N)=O)NC(=O)[C@H](Cc1c[nH]c2ccccc12)NC(=O)CNC(=O)[C@H](CS)NC(=O)[C@@H](N)CO)C(=O)N[C@H](C(=O)N[C@@H](CS)C(=O)N[C@@H](CCCCN)C(N)=O)[C@@H](C)O [H-SCGWQGSFLTCK-NH2]
ring closure, Ceff [2]: 48 mM

CC(C)C[C@H](NC(=O)[C@H](CCCCN)NC(=O)[C@H](CC(N)=O)NC(=O)CNC(=O)[C@H](CCC(=O)O)NC(=O)[C@H](Cc1c[nH]c2ccccc12)NC(=O)[C@@H](NC(=O)[C@H](CS)NC(=O)[C@@H](N)CO)[C@@H](C)O)C(=O)N[C@H](C(=O)N[C@@H](CS)C(=O)N[C@@H](CCCCN)C(N)=O)[C@@H](C)O [H-SCTWEGNKLTCK-NH2]
ring closure, Ceff [2]: 273 mM

CC(C)C[C@H](NC(=O)[C@H](Cc1ccccc1)NC(=O)[C@H](CO)NC(=O)CNC(=O)[C@H](CCC(N)=O)NC(=O)[C@H](Cc1c[nH]c2ccccc12)NC(=O)[C@@H](NC(=O)[C@H](CS)NC(=O)[C@@H](N)CO)[C@@H](C)O)C(=O)N[C@H](C(=O)N[C@@H](CS)C(=O)N[C@@H](CCCCN)C(N)=O)[C@@H](C)O [H-SCTWQGSFLTCK-NH2]
ring closure, Ceff [2]: 120 mM

GEWTYDDATKTFTVTE (turn peptide) [hairpin peptide derived from the B1 domain of protein G]
hairpin population ([3]; 273 K, from denaturation study): 80%
ΔH of folding ([3]; assuming ΔCp=0): -11.6 kcal/mol
ΔS of folding ([3]; assuming ΔCp=0): −39 cal/mol K
hairpin population ([3]; in water, NMR estimate): about 50%

IYSNPDGTWT (turn peptide) [variant of tendamistat-based model peptide]
hairpin population ([3]; in water, NMR estimate): 30%

IYSNSDGTWT (turn peptide)
hairpin population ([3]; in water, NMR estimate): 30%

KKYTVSINGKKITVSI (turn peptide)
ΔG of hairpin formation ([3]; 298 K): 0.08 kcal/mol
hairpin population ([3]; in water, 303 K): 50%

MQIGVKNPDGTITLEV (turn peptide)
hairpin population ([3]; in water, NMR estimate): ca. 80%

RGITVNGKTYGR (turn peptide) [designed β-hairpin peptide, type I′ turn flanked by three-residue strands]
hairpin population ([3]; in water, NMR estimate): about 30%

SCGNQGSFLTCK-NH2 (disulfide 2-11 (inferred)) [cd1a]
Ceff [4]: 45 ± 4 mM
[θ]215 [5]: −1,500 deg cm^2 dmol^−1

SCGWQGSFLTCK-NH2 (disulfide 2-11 (inferred))
Ceff [4]: 48 ± 0 mM
[θ]215 [5]: −6,100 deg cm^2 dmol^−1

SCTNQGSFLTCK-NH2 (disulfide 2-11 (inferred)) [T2, N3 variant of the CD4 peptide]
[θ]215 [5]: −5,000 deg cm^2 dmol^−1

SCTWEGNKLTCK-NH2 (disulfide 2-11 (inferred)) [bhpW with terminal serine and lysine added as a control]
Ceff [4]: 273 ± 2 mM
[θ]215 [5]: −17,400 deg cm^2 dmol^−1

SCTWQGSFLTCK-NH2 (disulfide 2-11 (inferred)) [cd2a]
Ceff [4]: 120 ± 0 mM
[θ]215 [5]: −14,000 deg cm^2 dmol^−1

YITNSDGTWT (turn peptide) [model peptide forming a register-shifted hairpin]
hairpin population ([3]; in water, NMR estimate): 80%
